Test results as given in the DeepSol protein solubility set.

Experiment: soluble on expression in E. coli; label from the status in PepcDB or PDB records

Sequence | soluble on expression in E. coli
MVGGEDMAKKKAPSAKEGEKQQGFKEIIPEVTEKLVEQARKEVARERWVTPHKLAQKMGVKVSIARRVLRILEEEGVLVLFTRNRRSPLYLEHHHHHH | not soluble
NEAPIDMHGGKSAKIERQSVENSAQKENSKSAILERLKRLREYSKDHLKAFQRLQVQDFDGRIKPLDTISIEYIHKILKKDDFQGLNAMQVLLGIMFFPNDWRSIKMIYTSTKALRKLIGTPLDESRIAFRDAFDSRGYKLKNLVEEVNQKSPNARNELDKDVLKVDERINLVYTLFSAQFLRIFPSDKTTAWLSPIEAISSPNKEISSVATEFLKNIFSGFDDALKTNQWDKVEKTLKDLSIYQKEHAKNLYLSSSKVDSEIFLNHTNFFNRLT | not soluble
MAHHHHHHMSAPTALTVPRRSASDAALADATRRELEEEMGRSDKPEQPTPPAGWQVVRKPGTCTFDLTKSFEGEDLVVRYSTNQDSDKANSHNIFVYITQKNGQTMQADLSIEEGELVLNNIRFYDEAALAKDTGAEAEAKRNELYTGPLVHELDYDLLNCVMTYLEKRGVDEKLGEFVVLYSFWAEQQDYEAWLTTMNKFAS | soluble
MTFGRLWEKFLASAYYSDLSPRTQKDYLQHQKKLLAVFGKVPADSIKPEHIRRYMDKRGEQSKTQANHEKSSMSRVYSWGYERGYVKANPCAGVSKFKAKNRERYVTDKEYQAVLSVAPLPVFIAMEIAYLCAARVSDVLSLKWEQIGNDGIFIQQGKTGKKQIKAWSPRLQAAIEKAKQLPTSAYVISNQYGNRYMYKGFNEMWVEARNRAGKISGILTDFTFHDLKAKGISDYEGSSRDKQLFSGHKTEGQVLIYDRKVKVSPTLDVPLPENIPRKYSK | not soluble
MGSDKIHHHHHHMKVLIITNLFPLNNNSNSGIFVVQRLRHYKSFNVNLDTISLGHHNSKIASLLEKLLRGHSNKKTLEEVENVKFYPVSIEINLLRLIKYGLLRNYFTVLCKEYKKMIEEAFNLNEYDLIHAHGMYSVPAGLTAKILAEKYRKPFIVTLHGSDVNLFMPHRKEIYVSILESASATIFVSKALLEKAKSLGFSGKNAVVIPNGYDETIFKPMDKEAVRKELGIHREGYKYVGFVGNLIPIKRADKLGEIFHLIAKEIPETFFIIVGDGPLRKKIEKETKGLNIIFTGRLPQKDVAKYMNAMDVMVLPSRNEGWPCVILEAQACGTCVIGSSNRGIPEAIGFPEYVVEEGDQFEERFARRVVEVLNEGYDVNRILERAKGFTWRNIVEKEIDVHKRVVLKS | not soluble
LSEKEFFMSRAIKLAKLGWGKTNPNPLVGAVVVKDGKIIAEGYHKQLGGPHAEVEAFNNAKEDVAGGTLYVNLEPCSHYGRTPPCAQKIIDVGIKKVVAAIKDPNPKVSGRGFEMLKNAGIEVEVGVLEEEAIRLNEIFITYIVKKKPFVILKTAMTLDGKIATASGDSKWVTGEKARNHVHVIRDRVAAVMVGINTVLKDNPYLTTRLPDKEGSDPVRIVVDSKGSIPLDSNVINSNSKAGVILATTSRIDKEKEKMLIDKGVKIIKADGSDGRVDLKLLMDELYKLEIDSVLLEGGGTLNSSAISAGIVDKVMCFISPKIVGGENAPTSVEGIGALRMCEAIGVKNISVVKFGEDILLEGYIE | soluble
GREEAPNAEADILSCRLPGVVMTTSPIITNNSINIFVGPGTDISSLAPEFTLTPGATIDPPSGTARDFHSPQQYTVTAADGFWKKKYTVSVIDTELATIYNFEDTLGGQKYYIFVEREGEKVVMEWASGNAGYAMTGVPKTADDYPTFQFANGKTGKCLSLVTRSTGFFGSIMGMPIAAGNLFIGSFDVGNAMSNPLKATKFGLPFRHIPTYLAGYYKYKAGDQFTEGGKPVSGKRDICDIYAIMYETSESVPTLDGTNAFTSPNLVSIARIDDAKETDEWTYFKLPFHMLSGKYIDKEKLTAGKYNVAIVFTSSLEGDHFNGAIGSTLLIDEVELIYRSED | soluble
MGHHHHHHSHIKPGEEVFTSYIDLLYPTEDRNDRLRDSYFFTCECQECTTKDKDKAKVEIRKLSDPPKAEAIRDMVRYARNVIEEFRRAKHYKSPSELLEICELSQEKMSSVFEDSNVYMLHMMYQAMGVCLYMQDWEGALQYGQKIIKPYSKHYPLYSLNVASMWLKLGRLYMGLEHKAAGEKALKKAIAIMEVAHGKDHPYISEIKQEIESH | not soluble
MAHHHHHHMNVLTSHTHLHMRRSCCMATARGCLGNIRTSDVSTRRCKGDYGFNIFHNSNPQHGASYARHERRMREDEVEDFLKSVKGWVPVDECFPCVDADADAEGADARKEEKEEMGPAPLTIFTGEGALKRDFDFANFRDAYLFMGRLWAFCYGSDKYPNVTWEGTRITVYIYSPSFRGLSKREARLAAFLNDQYNMFKKSKRQQKVIIDGVVKRSVIEDMMGECVAEALKRREEERQKPLAETVEGIATSWEAVLSKDGNNNNNDGTPSSCTSP | not soluble
MTAQKMSAQEIIAFIGNAEKKTNVKVTFEGELATAVPSSVTKLGNVLFGDWKDIEPLLANLTENKDYVVEQDGRNSAVPLLDK | not soluble
MKKAAVSGRLYEVFDVFADKALAGNPLAIVHDCEGLTDACMQAIAREFNLSETVFIHAPANPAHEASVRIFTPAYELPFAGHPTVGAAVSLARRQKTGDETDRLVTLEEKVGIVRCGVILGENSAFAEFDLPRLPEQVDVKIEREEAAAAIGLGTHEIGFENHVPGVWSAGTPCLLVPVHNLIAAAKVSIDPVYVSESLPHVGGRPLPIYVYCRETILFNSHFHARMFVIGANVYEDPATGSAVAAFAGMIQQNDKPVDGSSQWWIEQGMEMGRPSRIRLELDVSKQKLVSARIGGTAVKIAEGRLFVLEHHHHHH | not soluble
MAHHHHHHMKRWRTANLFTPAEVQHAFAALHRNAEALYSVSGTSSPLGPFVCRRGGARRHRRDHIELPLRHMYEAKTVYEQLPVEVRLICAGLYEAALGYAQEALREPGVSSAARDGILSNLGRNSVLRVLRYPAGSGCRPHVDPGLCTALLVGSAGGLEMSTTDAVLTPFASGPGHNTAHFVSSPTSMRGEAATMPGTLPHWEPVLTAHTGEAVVMAGNMLGAVSGGALPGVLHRVRRDWVAETPRTDGQRSPPLHAACVGGGADAEVDAGSGVFRFNVIVELRPAHAKRWYAATSGQSQLSSASSPSSLA | not soluble
MLPLIYHSIYSRLELPEGHRYPIMKYQYLYEEVRRDVQAEWVQFFEPQALSIEAIKRVHDADYVDLLAQGNMPAAKMRRIGFPWSEALITRTLTSAAG | not soluble
MQQNIQYTYSSDPRSGGNQNQQLHGISQFQQNSYQPTTYSNSNANNFHSSNSATFIPNSVTQTPQRRMGEEKSLVNMLDAYFIDSTTPSTSTSWNNQQPVQMSSIQQSVGSYNQQIPQLKVGDVDLQVEGMNVKLSSSPDKGEKDRVKKARQAEAARMRYHRLSNEEKRELNLKRTLAQKRKRQREKEMEELESILRETNDIQEDPDITEQLREKRMRAKWAEAARTRYARMTPEERRAHNTRRRMRQMQNAMSAIKACGMATGDPQKDDEAVRLHIKTQNAKKAEAARQRYHRMNDDEKRVYNQRRTEAFRRRRMEEEMLLAMPIGRINGEALDRAQQIVVRNAKRAEAARLRYQRMTPDQRKSYNQKRYTPKRRRNEMDDMISAGQMAVGSSGTITMGTGTPAKKDDMDALSSLERDVVKRTQHAQQILLRQRANQSSGTPRSVTPPPQAYIISNGQQQHQQLVGNQGNNGIGQHQVLHQGHMQQQQIQVSHQDFQQSSQSIPQNIYTSGMIIQNQGQQQQGQQQQQGQSQQILNNPYRT | not soluble
MASYSQFLTKAQEDELRSIANAIVTPGKGILAADESTGSMDKRLNSIGLENTEENRRKYRQLLFTAGADLNKYISGVIMFHETFYQKTDDGKPFTALLQEQGIIPGIKVDKGVVPMAGTIGEGTTQGLDDLNARCAQYKKDGAQFAKWRCVHKISSTTPSVTALKEIASNLARYASICQQNGLVPIVEPEILPDGEHCLARGQKITETVLSYVYHALNEHHVFLEGTLLKPNMVTSGQSFTGEKPSNADIGLATVTALQRGVPSAVPGVVFLSGGQSEEDATLNLNAINQVSGKKPWALTFSYGRALQASCLAKWAGKDENIAAAQEVLLHRAQVNSLASVGKYTGDASADAAASQSLFVANHSY | soluble
